Results from US20210139548A1 (published 2021).
*1 amine or outer side, *2 acyl side, *3 side chain or, on linkers, in order; H or OH if unused. Side-chain parts run from the residue outwards. The star is where a group is joined. C18 diacid = O=C(O)CCCCCCCCCCCCCCCCC(=O)*; γGlu = O=C(O)[C@H](CCC(=O)[*:2])N[*:1]; Isovaleryl = CC(C)CC(=O)*; AEEA = NCCOCCOCC(=O)O

Molecular target: T1, human neuropeptide Y2 receptor (human, UniProt P49146 1-381)
T1 construct: whole, on cells; also called hNPY2 receptor; hNPY2-R
T1 sequence (looked up): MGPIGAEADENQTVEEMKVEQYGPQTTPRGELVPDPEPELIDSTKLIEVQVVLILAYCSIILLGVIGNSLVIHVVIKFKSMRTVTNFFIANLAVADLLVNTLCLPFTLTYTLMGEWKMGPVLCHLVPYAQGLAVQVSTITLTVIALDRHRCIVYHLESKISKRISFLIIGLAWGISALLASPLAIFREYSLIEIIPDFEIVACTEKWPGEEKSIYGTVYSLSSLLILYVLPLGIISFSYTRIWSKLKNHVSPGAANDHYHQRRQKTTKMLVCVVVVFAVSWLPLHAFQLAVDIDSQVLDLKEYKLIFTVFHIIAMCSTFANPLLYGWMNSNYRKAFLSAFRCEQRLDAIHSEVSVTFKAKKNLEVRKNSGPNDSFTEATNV
Assay: radioligand competition (125I-PYY(1-36)), hNPY2R membranes
In short: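 Commercial human Y2 receptor membranes (0.5 μg protein/well) were incubated with peptide for 2 h at room temperature in 50 mM HEPES, 5 mM MgCl₂, 1 mM CaCl₂, pH 7.4, with 0.2% ovalbumin. Bound radioligand was separated on PEI-soaked GF/C filters and counted by scintillation, and IC₅₀ came from nonlinear sigmoidal regression.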

B1: Compound 205 (peptide)
peptide: Isovaleryl-APEK([AEEA-AEEA-γGlu-C18 diacid])PEEEASPEELQKYYVSLRHYYNWLTRQRY-NH2
SMILES: CC(C)CC(=O)N[C@@H](C)C(=O)N1CCC[C@H]1C(=O)N[C@@H](CCC(=O)O)C(=O)N[C@@H](CCCCNC(=O)COCCOCCNC(=O)COCCOCCNC(=O)CC[C@H](NC(=O)CCCCCCCCCCCCCCCCC(=O)O)C(=O)O)C(=O)N1CCC[C@H]1C(=O)N[C@@H](CCC(=O)O)C(=O)N[C@@H](CCC(=O)O)C(=O)N[C@@H](CCC(=O)O)C(=O)N[C@@H](C)C(=O)N[C@@H](CO)C(=O)N1CCC[C@H]1C(=O)N[C@@H](CCC(=O)O)C(=O)N[C@@H](CCC(=O)O)C(=O)N[C@@H](CC(C)C)C(=O)N[C@@H](CCC(N)=O)C(=O)N[C@@H](CCCCN)C(=O)N[C@@H](Cc1ccc(O)cc1)C(=O)N[C@@H](Cc1ccc(O)cc1)C(=O)N[C@H](C(=O)N[C@@H](CO)C(=O)N[C@@H](CC(C)C)C(=O)N[C@@H](CCCNC(=N)N)C(=O)N[C@@H](Cc1c[nH]cn1)C(=O)N[C@@H](Cc1ccc(O)cc1)C(=O)N[C@@H](Cc1ccc(O)cc1)C(=O)N[C@@H](CC(N)=O)C(=O)N[C@@H](Cc1c[nH]c2ccccc12)C(=O)N[C@@H](CC(C)C)C(=O)N[C@H](C(=O)N[C@@H](CCCNC(=N)N)C(=O)N[C@@H](CCC(N)=O)C(=O)N[C@@H](CCCNC(=N)N)C(=O)N[C@@H](Cc1ccc(O)cc1)C(N)=O)[C@@H](C)O)C(C)C
B1 was tested. Which Ki did it give?
The Ki was 1.9 nM.

B2: Compound 212 (peptide)
peptide: Isovaleryl-APEK([AEEA-AEEA-γGlu-C18 diacid])PEEDTAPEELQRYYVSLRHYYNWLTRQRY-NH2
SMILES: CC(C)CC(=O)N[C@@H](C)C(=O)N1CCC[C@H]1C(=O)N[C@@H](CCC(=O)O)C(=O)N[C@@H](CCCCNC(=O)COCCOCCNC(=O)COCCOCCNC(=O)CC[C@H](NC(=O)CCCCCCCCCCCCCCCCC(=O)O)C(=O)O)C(=O)N1CCC[C@H]1C(=O)N[C@@H](CCC(=O)O)C(=O)N[C@@H](CCC(=O)O)C(=O)N[C@@H](CC(=O)O)C(=O)N[C@H](C(=O)N[C@@H](C)C(=O)N1CCC[C@H]1C(=O)N[C@@H](CCC(=O)O)C(=O)N[C@@H](CCC(=O)O)C(=O)N[C@@H](CC(C)C)C(=O)N[C@@H](CCC(N)=O)C(=O)N[C@@H](CCCNC(=N)N)C(=O)N[C@@H](Cc1ccc(O)cc1)C(=O)N[C@@H](Cc1ccc(O)cc1)C(=O)N[C@H](C(=O)N[C@@H](CO)C(=O)N[C@@H](CC(C)C)C(=O)N[C@@H](CCCNC(=N)N)C(=O)N[C@@H](Cc1c[nH]cn1)C(=O)N[C@@H](Cc1ccc(O)cc1)C(=O)N[C@@H](Cc1ccc(O)cc1)C(=O)N[C@@H](CC(N)=O)C(=O)N[C@@H](Cc1c[nH]c2ccccc12)C(=O)N[C@@H](CC(C)C)C(=O)N[C@H](C(=O)N[C@@H](CCCNC(=N)N)C(=O)N[C@@H](CCC(N)=O)C(=O)N[C@@H](CCCNC(=N)N)C(=O)N[C@@H](Cc1ccc(O)cc1)C(N)=O)[C@@H](C)O)C(C)C)[C@@H](C)O
How did the Ki turn out when B2 was run?
The Ki was 20.3 nM.

B3: Compound 208 (peptide)
peptide: Isovaleryl-APEK([AEEA-AEEA-γGlu-C18 diacid])PEEDASEEETQRYYVSLRHYYNWLTRQRY-NH2
SMILES: CC(C)CC(=O)N[C@@H](C)C(=O)N1CCC[C@H]1C(=O)N[C@@H](CCC(=O)O)C(=O)N[C@@H](CCCCNC(=O)COCCOCCNC(=O)COCCOCCNC(=O)CC[C@H](NC(=O)CCCCCCCCCCCCCCCCC(=O)O)C(=O)O)C(=O)N1CCC[C@H]1C(=O)N[C@@H](CCC(=O)O)C(=O)N[C@@H](CCC(=O)O)C(=O)N[C@@H](CC(=O)O)C(=O)N[C@@H](C)C(=O)N[C@@H](CO)C(=O)N[C@@H](CCC(=O)O)C(=O)N[C@@H](CCC(=O)O)C(=O)N[C@@H](CCC(=O)O)C(=O)N[C@H](C(=O)N[C@@H](CCC(N)=O)C(=O)N[C@@H](CCCNC(=N)N)C(=O)N[C@@H](Cc1ccc(O)cc1)C(=O)N[C@@H](Cc1ccc(O)cc1)C(=O)N[C@H](C(=O)N[C@@H](CO)C(=O)N[C@@H](CC(C)C)C(=O)N[C@@H](CCCNC(=N)N)C(=O)N[C@@H](Cc1c[nH]cn1)C(=O)N[C@@H](Cc1ccc(O)cc1)C(=O)N[C@@H](Cc1ccc(O)cc1)C(=O)N[C@@H](CC(N)=O)C(=O)N[C@@H](Cc1c[nH]c2ccccc12)C(=O)N[C@@H](CC(C)C)C(=O)N[C@H](C(=O)N[C@@H](CCCNC(=N)N)C(=O)N[C@@H](CCC(N)=O)C(=O)N[C@@H](CCCNC(=N)N)C(=O)N[C@@H](Cc1ccc(O)cc1)C(N)=O)[C@@H](C)O)C(C)C)[C@@H](C)O
How did the Ki turn out when B3 was run?
Its Ki is 3.8 nM.

B4: Compound 209 (peptide)
peptide: Isovaleryl-APEK([AEEA-AEEA-γGlu-C18 diacid])PEEDSEPEELQRYYVSLRHYYNWLTRQRY-NH2
SMILES: CC(C)CC(=O)N[C@@H](C)C(=O)N1CCC[C@H]1C(=O)N[C@@H](CCC(=O)O)C(=O)N[C@@H](CCCCNC(=O)COCCOCCNC(=O)COCCOCCNC(=O)CC[C@H](NC(=O)CCCCCCCCCCCCCCCCC(=O)O)C(=O)O)C(=O)N1CCC[C@H]1C(=O)N[C@@H](CCC(=O)O)C(=O)N[C@@H](CCC(=O)O)C(=O)N[C@@H](CC(=O)O)C(=O)N[C@@H](CO)C(=O)N[C@@H](CCC(=O)O)C(=O)N1CCC[C@H]1C(=O)N[C@@H](CCC(=O)O)C(=O)N[C@@H](CCC(=O)O)C(=O)N[C@@H](CC(C)C)C(=O)N[C@@H](CCC(N)=O)C(=O)N[C@@H](CCCNC(=N)N)C(=O)N[C@@H](Cc1ccc(O)cc1)C(=O)N[C@@H](Cc1ccc(O)cc1)C(=O)N[C@H](C(=O)N[C@@H](CO)C(=O)N[C@@H](CC(C)C)C(=O)N[C@@H](CCCNC(=N)N)C(=O)N[C@@H](Cc1c[nH]cn1)C(=O)N[C@@H](Cc1ccc(O)cc1)C(=O)N[C@@H](Cc1ccc(O)cc1)C(=O)N[C@@H](CC(N)=O)C(=O)N[C@@H](Cc1c[nH]c2ccccc12)C(=O)N[C@@H](CC(C)C)C(=O)N[C@H](C(=O)N[C@@H](CCCNC(=N)N)C(=O)N[C@@H](CCC(N)=O)C(=O)N[C@@H](CCCNC(=N)N)C(=O)N[C@@H](Cc1ccc(O)cc1)C(N)=O)[C@@H](C)O)C(C)C
With B4 as the binder, how does the Ki read?
Its Ki is 8.07 nM.

B5: Compound 210 (peptide)
peptide: Isovaleryl-APEK([AEEA-AEEA-γGlu-C18 diacid])IEEEASPEELQRYYVSLRHYYNWLTRQRY-NH2
SMILES: CC[C@H](C)[C@H](NC(=O)[C@H](CCCCNC(=O)COCCOCCNC(=O)COCCOCCNC(=O)CC[C@H](NC(=O)CCCCCCCCCCCCCCCCC(=O)O)C(=O)O)NC(=O)[C@H](CCC(=O)O)NC(=O)[C@@H]1CCCN1C(=O)[C@H](C)NC(=O)CC(C)C)C(=O)N[C@@H](CCC(=O)O)C(=O)N[C@@H](CCC(=O)O)C(=O)N[C@@H](CCC(=O)O)C(=O)N[C@@H](C)C(=O)N[C@@H](CO)C(=O)N1CCC[C@H]1C(=O)N[C@@H](CCC(=O)O)C(=O)N[C@@H](CCC(=O)O)C(=O)N[C@@H](CC(C)C)C(=O)N[C@@H](CCC(N)=O)C(=O)N[C@@H](CCCNC(=N)N)C(=O)N[C@@H](Cc1ccc(O)cc1)C(=O)N[C@@H](Cc1ccc(O)cc1)C(=O)N[C@H](C(=O)N[C@@H](CO)C(=O)N[C@@H](CC(C)C)C(=O)N[C@@H](CCCNC(=N)N)C(=O)N[C@@H](Cc1c[nH]cn1)C(=O)N[C@@H](Cc1ccc(O)cc1)C(=O)N[C@@H](Cc1ccc(O)cc1)C(=O)N[C@@H](CC(N)=O)C(=O)N[C@@H](Cc1c[nH]c2ccccc12)C(=O)N[C@@H](CC(C)C)C(=O)N[C@H](C(=O)N[C@@H](CCCNC(=N)N)C(=O)N[C@@H](CCC(N)=O)C(=O)N[C@@H](CCCNC(=N)N)C(=O)N[C@@H](Cc1ccc(O)cc1)C(N)=O)[C@@H](C)O)C(C)C
For B5, which Ki is on record?
Its Ki is 10.5 nM.

B6: Compound 207 (peptide)
peptide: Isovaleryl-APAK([AEEA-AEEA-γGlu-C18 diacid])PEADAEPEELQRYYVSLRHYYNWLTRQRY-NH2
SMILES: CC(C)CC(=O)N[C@@H](C)C(=O)N1CCC[C@H]1C(=O)N[C@@H](C)C(=O)N[C@@H](CCCCNC(=O)COCCOCCNC(=O)COCCOCCNC(=O)CC[C@H](NC(=O)CCCCCCCCCCCCCCCCC(=O)O)C(=O)O)C(=O)N1CCC[C@H]1C(=O)N[C@@H](CCC(=O)O)C(=O)N[C@@H](C)C(=O)N[C@@H](CC(=O)O)C(=O)N[C@@H](C)C(=O)N[C@@H](CCC(=O)O)C(=O)N1CCC[C@H]1C(=O)N[C@@H](CCC(=O)O)C(=O)N[C@@H](CCC(=O)O)C(=O)N[C@@H](CC(C)C)C(=O)N[C@@H](CCC(N)=O)C(=O)N[C@@H](CCCNC(=N)N)C(=O)N[C@@H](Cc1ccc(O)cc1)C(=O)N[C@@H](Cc1ccc(O)cc1)C(=O)N[C@H](C(=O)N[C@@H](CO)C(=O)N[C@@H](CC(C)C)C(=O)N[C@@H](CCCNC(=N)N)C(=O)N[C@@H](Cc1c[nH]cn1)C(=O)N[C@@H](Cc1ccc(O)cc1)C(=O)N[C@@H](Cc1ccc(O)cc1)C(=O)N[C@@H](CC(N)=O)C(=O)N[C@@H](Cc1c[nH]c2ccccc12)C(=O)N[C@@H](CC(C)C)C(=O)N[C@H](C(=O)N[C@@H](CCCNC(=N)N)C(=O)N[C@@H](CCC(N)=O)C(=O)N[C@@H](CCCNC(=N)N)C(=O)N[C@@H](Cc1ccc(O)cc1)C(N)=O)[C@@H](C)O)C(C)C
B6 was tested. Which Ki did it give?
The Ki was 1.07 nM.
